Test results from patent publication US9591845B2, “Method for treating blood, blood products and organs” (FORSCHUNGSZENTRUM JUELICH GMBH, priority 2012, dated 2017).
Non-standard residues stand in square brackets, D forms with d. No end group written: not given here.

Molecular target: A-beta peptide (1-42) (Homo sapiens, UniProt P05067)
Assay: ThT seeding assay
Assay type: biochemical
Settings: coaggregates formed with 20 μM inhibitor, 7 days at 37° C., 10 mM NaPi pH 7.4; mixed 20:80 with fresh Aβ 20 μM, 10 μM ThT, fluorescence over 20 h

Sequence of A-beta peptide (1-42) (P05067 672-713): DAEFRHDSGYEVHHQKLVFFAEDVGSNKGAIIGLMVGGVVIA

| Substance | seeding effect of preformed Abeta-inhibitor coaggregates (ability to increase the rate of the aggregation of fresh Abeta / shorten the lag phase) |
| --- | --- |
| rpitrlqtheqr ([dR][dP][dI][dT][dR][dL][dQ][dT][dH][dE][dQ][dR]) [DB5] | no seeding effect |
| rprtrlhthrnr ([dR][dP][dR][dT][dR][dL][dH][dT][dH][dR][dN][dR]) [D3] | no seeding effect |
| rpitrlhtnrnr [DB1] | no seeding effect |
| rpitrlrthqnr ([dR][dP][dI][dT][dR][dL][dR][dT][dH][dQ][dN][dR]) [DB3] | no seeding effect |
| rprtrlrthqnr ([dR][dP][dR][dT][dR][dL][dR][dT][dH][dQ][dN][dR]) [DB4] | no seeding effect |
| rpittlqthqnr ([dR][dP][dI][dT][dT][dL][dQ][dT][dH][dQ][dN][dR]) [DB2] | no seeding effect |

Same assay, conditions: inhibitor-Abeta coaggregates added to fresh Aβ 20 μM, ThT fluorescence over 20 h

| Substance | formation of ThT-positive Abeta aggregates in the later phase |
| --- | --- |
| rprtrlrthqnr ([dR][dP][dR][dT][dR][dL][dR][dT][dH][dQ][dN][dR]) [DB4] | appear to reduce the formation of ThT-positive Abeta aggregates in the later phase |
